Measurements taken from US20090208410A1, “ED-B FIBRONECTIN AS STRATIFICATION MARKER FOR ANTI-TUMOR DRUGS” (priority 2007, published 2009).

Tested on: NCI-H292 and Calu-6 tumor tissue
Test: In vitro binding of biotinylated AP39 to frozen sections of tumor tissue (ExtrAvidin / DAB staining)
Parameters: species or system human
Settings: frozen sections (5-10 μm); NCI-H292 (FIG. 1A) compared to Calu-6 (FIG. 1B)
Experimental: Binding studies were performed in two human NSCLC tumor models in mice: NCI-H292 which is an erlotinib-sensitive epithelial-type model, and Calu-6 which is an erlotinib-resistant mesenchymal-type model.
TCEP-reduced AP39 was biotinylated using 3-(N-maleimidopropionyl) biocytin (Sigma). The in vitro binding of biotinylated AP39 to frozen sections (5-10 μm) of NCI-H292 and Calu-6 tumor tissue was determined by utilizing ExtrAvidin (Sigma) and Liquid DAB Substrate Pack (BioGenex) according to the protocols of the manufacturers.

B1: biotinylated AP39: TCEP-reduced AP39 biotinylated using 3-(N-maleimidopropionyl) biocytin (conjugate)
scFv: EVQLLESGGGLVQPGGSLRLSCAASGFTFSSFSMSWVRQAPGKGLEWVSSISGSSGTTYYADSVKGRFTISRDNSKNTLYLQMNSLRAEDTAVYYCAKPFPYFDYWGQGTLVTVSSGDGSSGGSGGASTGEIVLTQSPGTLSLSPGERATLSCRASQSVSSSFLAWYQQKPGQAPRLLIYYASSRATGIPDRFSGSGSGTDFTLTISRLEPEDFAVYYCQQTGRIPPTFGQGTKVEIKGGGCA
binding to tumor tissue, NCI-H292 compared to Calu-6: more extensive binding
